Biological target: dansyl-CaM (dansylated calmodulin), P0DP29
Experiment: other fluorescence titration
Details: remark: other sources report otherwise

stoichiometry N: 1
B1: purified recombinant RGS14 (Regulator of G Protein Signaling 14), O08773 1-544 (natural protein)
chain: MPGKPKHLGVPNGRMVLAVSDGELTSTSGSQAQGEGRGSSLSIHSLPSGPSSPFSTDEQPVASWAQSFERLLQDPRGLAYFTEFLKKEFSAENVTFWQACERFQQIPASDTKQLAQEAHNIYHEFLSSQALSPVNIDRQAWLSEEVLAQPRPDMFRAQQLQIFNLMKFDSYARFVKSPLYQECLLAEAEGRPLREPGSSHLGSPDTARKKPKLKPGKSLPLGVEELGQLPLAEGRPLRKSFRREMPGGAVNSALRRESQGSLNSSASLDLGFLAFVSSKSESHRKSLGSGEGESESRPGKYCCVYLPDGTASLALARPGLTIRDMLAGICEKRGLSLPDIKVYLVGKEQKALVLDQDCTVLADQEVRLENRITFQLELVGLERVVRISAKPTKRLQEALQPILAKHGLSLDQVVLHRPGEKQLVDLENLVSSVASQTLVLDTLPDAKTREASSIPPCRSQGCLPRTQTKDSHLPPLSSSLSVEDASGSTGKRQTCDIEGLVELLNRVQSSGAHDQRGLLRKEDLVLPEFLQLPSQRPGSQEAPP
modifications: here or on the partner: dansyl label (site not stated)

— paper PMC6554723
